Measurements published in patent US20240279355A1 (Hoffmann-La Roche, published 2024).

How the values were obtained:
[1] = target: T1, human STEAP-1 (six-transmembrane epithelial antigen of prostate 1) (human, UniProt Q9UHE8 1-339); experiment: cell-based ELISA on CHO-K1 cells stably expressing human STEAP1; binding EC50 of the stressed sample against the untreated sample x100
T1 construct: Full-length human STEAP1 stably expressed on CHO-K1 cells (CHO-hSTEAP1); endogenous on LnCAP and 22Rv1 cells in the functional assays; also called hSTEAP-1
Experimental: Characterization of Binding Potency After Stress Using a Cell-Based ELISA To quantify the reduction in binding potency caused by 1-4 weeks stress at either pH 7.4 or 6.0, a cell-based ELISA was employed using CHO-K1 cells stably expressing human STEAP1. For this cell-based ELISA, 10,000 cells were seeded per well of a 96-well plate and incubated for 18 h at 37° C., 5% CO₂. Supernatant was removed using an automated washer (BIOTEK), and 100 μl of a dilution series (10 pM-30 nM) of antibody constructs in growth medium was added to each well. After 1 h of incubation at 4° C., wells were emptied and 100 μl of 0.05% glutaraldehyde in PBS added for 10 min at RT. After 4 washes with PBS/0.025% Tween20 (PBST), 100 μl of anti-human-IgG-HRP (Jackson) diluted 1:20000 in Blocking buffer (Roche) was added and plates incubated for 1 h at room temperature (RT). Wells were washed 6 times with PBST and signal was generated using 100 μl of TMB per well, the reaction stopped after 10 minutes with 50 μl 1 M HCl and absorbance measured at 450 nm. Data (Table 4) were expressed as “% binding”, dividing the binding EC50 of the stressed sample by that of the untreated sample multiplied by 100.

[2] = target: FcRn (neonatal Fc receptor); experiment: FcRn affinity chromatography, pH gradient elution; retention time compared to protein standards with known affinities
Experimental: FcRn was expressed, purified and biotinylated as described (Schlothauer et al., MAbs (2013) 5(4), 576-86). For coupling, the prepared receptor was added to streptavidin-sepharose (GE Healthcare). The resulting FcRn-sepharose matrix was packed in a column housing. The column was equilibrated with 20 mM 2-(N-morpholine)-ethanesulfonic acid (MES), 140 mM NaCl, pH 5.5 (eluent A) at a 0.5 ml/min flow rate. 30 μg of antibody samples were diluted at a volume ratio of 1:1 with eluent A and applied to the FcRn column. The column was washed with 5 column volumes of eluent A followed by elution with a linear gradient from 20 to 100% 20 mM Tris/HCl, 140 mM NaCl, pH 8.8 (eluent B) in 35 column volumes. The analysis was performed with a column oven at 25° C. The elution profile was monitored by continuous measurement of the absorbance at 280 nm. Retention times were compared to protein standards with known affinities.

[3] = target: T1, human STEAP-1 (six-transmembrane …); experiment: flow cytometry on CHO-K1 cells stably transfected with full-length human STEAP1, PerCP anti-human IgG secondary
Description: A gene encoding full-length human STEAP1 was subcloned into mammalian expression vector. The plasmid was transfected into CHO-K1 (ATCC CRL-9618) cells using Lipofectamine LTX Reagent according to the manufacturer's protocol (Invitrogen, #15338100). Stably transfected STEAP1-positive CHO cells were maintained in DMEM/F-12 medium (Gibco, #11320033) supplemented with 10% fetal bovine serum (Gibco, #16140063) and 1% GlutaMAX Supplement (Gibco; #31331-028). Two days after transfection, puromycin (Invivogen; #ant-pr-1) was added to 6 μg/mL and the cells were cultured for several passages. After initial selection, the cells with the highest cell surface expression of STEAP1 were sorted by BD FACSAria II cell sorter (BD Biosciences) and cultured to establish stable cell clones. The expression level and stability was confirmed by FACS analysis using vandortuzumab and PerCP-conjugated Fc gamma-specific goat anti-human IgG (Jackson ImmunoResearch, #109-126-097) as secondary antibody over a period of 4 weeks.

T1 sequence (Q9UHE8 whole entry): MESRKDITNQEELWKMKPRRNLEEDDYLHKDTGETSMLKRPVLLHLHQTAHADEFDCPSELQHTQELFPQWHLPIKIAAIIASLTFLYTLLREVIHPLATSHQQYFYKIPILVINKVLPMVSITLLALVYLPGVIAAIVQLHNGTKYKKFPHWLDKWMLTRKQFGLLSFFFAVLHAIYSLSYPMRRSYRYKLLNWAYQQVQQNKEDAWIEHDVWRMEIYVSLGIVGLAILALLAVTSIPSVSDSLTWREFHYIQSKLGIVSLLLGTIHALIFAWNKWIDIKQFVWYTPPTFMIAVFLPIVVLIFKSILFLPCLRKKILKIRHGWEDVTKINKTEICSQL
Sequence of FcRn (neonatal Fc receptor) (P55899 24-297, chain 1 of 2): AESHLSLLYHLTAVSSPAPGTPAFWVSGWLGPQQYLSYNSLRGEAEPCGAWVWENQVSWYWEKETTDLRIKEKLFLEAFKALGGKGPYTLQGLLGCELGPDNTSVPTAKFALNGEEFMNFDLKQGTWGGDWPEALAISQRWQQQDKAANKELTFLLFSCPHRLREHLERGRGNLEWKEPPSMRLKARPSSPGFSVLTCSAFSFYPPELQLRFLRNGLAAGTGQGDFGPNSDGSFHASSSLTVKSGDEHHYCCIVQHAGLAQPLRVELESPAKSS
Sequence of FcRn (neonatal Fc receptor) (P61769 21-119, chain 2 of 2, further chain): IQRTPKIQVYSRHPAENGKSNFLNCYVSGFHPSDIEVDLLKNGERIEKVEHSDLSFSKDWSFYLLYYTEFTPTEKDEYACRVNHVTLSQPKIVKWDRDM

| Binder | Relative binding potency (%) (after 28 days at 40° C., pH 6) [1] | FcRn affinity [2] | binding result [3] |
| --- | --- | --- | --- |
| Molecule A: 2+1 IgG CrossFab inverted anti-STEAP1/anti-CD3 T cell bispecific (TCB) antibody with the vandortuzumab variable domains (bispecific antibody, Two STEAP1 Fabs (charge modifications EE/RK) and one CD3 CrossFab (VH/VL exchange), human IgG1 Fc with knob-into-hole and PGLALA; also called STEAP-1 TCB antibody) heavy 1: EVQLVESGGGLVQPGGSLRLSCAVSGYSITSDYAWNWVRQAPGKGLEWVGYISNSGSTSYNPSLKSRFTISRDTSKNTLYLQMNSLRAEDTAVYYCARERNYDYDDYYYAMDYWGQGTLVTVSSASTKGPSVFPLAPSSKSTSGGTAALGCLVEDYFPEPVTVSWNSGALTSGVHTFPAVLQSSGLYSLSSVVTVPSSSLGTQTYICNVNHKPSNTKVDEKVEPKSCDKTHTCPPCPAPEAAGGPSVFLFPPKPKDTLMISRTPEVTCVVVDVSHEDPEVKFNWYVDGVEVHNAKTKPREEQYNSTYRVVSVLTVLHQDWLNGKEYKCKVSNKALGAPIEKTISKAKGQPREPQVCTLPPSRDELTKNQVSLSCAVKGFYPSDIAVEWESNGQPENNYKTTPPVLDSDGSFFLVSKLTVDKSRWQQGNVFSCSVMHEALHNHYTQKSLSLSP heavy 2: not shown light 1: DIQMTQSPSSLSASVGDRVTITCKSSQSLLYRSNQKNYLAWYQQKPGKAPKLLIYWASTRESGVPSRFSGSGSGTDFTLTISSLQPEDFATYYCQQYYNYPRTFGQGTKVEIKRTVAAPSVFIFPPSDRKLKSGTASVVCLLNNFYPREAKVQWKVDNALQSGNSQESVTEQDSKDSTYSLSSTLTLSKADYEKHKVYACEVTHQGLSSPVTKSFNRGEC light 2: EVQLLESGGGLVQPGGSLRLSCAASGFTFSTYAMNWVRQAPGKGLEWVSRIRSKYNNYATYYADSVKGRFTISRDDSKNTLYLQMNSLRAEDTAVYYCVRHGNFGNSYVSWFAYWGQGTLVTVSSASVAAPSVFIFPPSDEQLKSGTASVVCLLNNFYPREAKVQWKVDNALQSGNSQESVTEQDSKDSTYSLSSTLTLSKADYEKHKVYACEVTHQGLSSPVTKSFNRGEC | 66 | 0.61 | – |
| Molecule D: 2+1 IgG CrossFab inverted anti-STEAP1/anti-CD3 TCB antibody, D100aE/D100bE mutations in both STEAP1 binding moieties (bispecific antibody, Same format as Molecule A; also called STEAP-1 TCB antibody variant (EE)) heavy 1: EVQLVESGGGLVQPGGSLRLSCAVSGYSITSDYAWNWVRQAPGKGLEWVGYISNSGSTSYNPSLKSRFTISRDTSKNTLYLQMNSLRAEDTAVYYCARERNYDYEEYYYAMDYWGQGTLVTVSSASTKGPSVFPLAPSSKSTSGGTAALGCLVEDYFPEPVTVSWNSGALTSGVHTFPAVLQSSGLYSLSSVVTVPSSSLGTQTYICNVNHKPSNTKVDEKVEPKSCDKTHTCPPCPAPEAAGGPSVFLFPPKPKDTLMISRTPEVTCVVVDVSHEDPEVKFNWYVDGVEVHNAKTKPREEQYNSTYRVVSVLTVLHQDWLNGKEYKCKVSNKALGAPIEKTISKAKGQPREPQVCTLPPSRDELTKNQVSLSCAVKGFYPSDIAVEWESNGQPENNYKTTPPVLDSDGSFFLVSKLTVDKSRWQQGNVFSCSVMHEALHNHYTQKSLSLSP heavy 2: not shown light 1: DIQMTQSPSSLSASVGDRVTITCKSSQSLLYRSNQKNYLAWYQQKPGKAPKLLIYWASTRESGVPSRFSGSGSGTDFTLTISSLQPEDFATYYCQQYYNYPRTFGQGTKVEIKRTVAAPSVFIFPPSDRKLKSGTASVVCLLNNFYPREAKVQWKVDNALQSGNSQESVTEQDSKDSTYSLSSTLTLSKADYEKHKVYACEVTHQGLSSPVTKSFNRGEC light 2: EVQLLESGGGLVQPGGSLRLSCAASGFTFSTYAMNWVRQAPGKGLEWVSRIRSKYNNYATYYADSVKGRFTISRDDSKNTLYLQMNSLRAEDTAVYYCVRHGNFGNSYVSWFAYWGQGTLVTVSSASVAAPSVFIFPPSDEQLKSGTASVVCLLNNFYPREAKVQWKVDNALQSGNSQESVTEQDSKDSTYSLSSTLTLSKADYEKHKVYACEVTHQGLSSPVTKSFNRGEC | 100 | 0.65 | – |
| Molecule C: 2+1 IgG CrossFab inverted anti-STEAP1/anti-CD3 TCB antibody, D100bE mutation in both STEAP1 binding moieties (bispecific antibody, Same format as Molecule A; also called STEAP-1 TCB antibody variant (DE)) heavy 1: EVQLVESGGGLVQPGGSLRLSCAVSGYSITSDYAWNWVRQAPGKGLEWVGYISNSGSTSYNPSLKSRFTISRDTSKNTLYLQMNSLRAEDTAVYYCARERNYDYDEYYYAMDYWGQGTLVTVSSASTKGPSVFPLAPSSKSTSGGTAALGCLVEDYFPEPVTVSWNSGALTSGVHTFPAVLQSSGLYSLSSVVTVPSSSLGTQTYICNVNHKPSNTKVDEKVEPKSCDKTHTCPPCPAPEAAGGPSVFLFPPKPKDTLMISRTPEVTCVVVDVSHEDPEVKFNWYVDGVEVHNAKTKPREEQYNSTYRVVSVLTVLHQDWLNGKEYKCKVSNKALGAPIEKTISKAKGQPREPQVCTLPPSRDELTKNQVSLSCAVKGFYPSDIAVEWESNGQPENNYKTTPPVLDSDGSFFLVSKLTVDKSRWQQGNVFSCSVMHEALHNHYTQKSLSLSP heavy 2: not shown light 1: DIQMTQSPSSLSASVGDRVTITCKSSQSLLYRSNQKNYLAWYQQKPGKAPKLLIYWASTRESGVPSRFSGSGSGTDFTLTISSLQPEDFATYYCQQYYNYPRTFGQGTKVEIKRTVAAPSVFIFPPSDRKLKSGTASVVCLLNNFYPREAKVQWKVDNALQSGNSQESVTEQDSKDSTYSLSSTLTLSKADYEKHKVYACEVTHQGLSSPVTKSFNRGEC light 2: EVQLLESGGGLVQPGGSLRLSCAASGFTFSTYAMNWVRQAPGKGLEWVSRIRSKYNNYATYYADSVKGRFTISRDDSKNTLYLQMNSLRAEDTAVYYCVRHGNFGNSYVSWFAYWGQGTLVTVSSASVAAPSVFIFPPSDEQLKSGTASVVCLLNNFYPREAKVQWKVDNALQSGNSQESVTEQDSKDSTYSLSSTLTLSKADYEKHKVYACEVTHQGLSSPVTKSFNRGEC | 69 | – | – |
| Molecule B: 2+1 IgG CrossFab inverted anti-STEAP1/anti-CD3 TCB antibody, D100aE mutation in both STEAP1 binding moieties (bispecific antibody, Same format as Molecule A; also called STEAP-1 TCB antibody variant (ED)) heavy 1: EVQLVESGGGLVQPGGSLRLSCAVSGYSITSDYAWNWVRQAPGKGLEWVGYISNSGSTSYNPSLKSRFTISRDTSKNTLYLQMNSLRAEDTAVYYCARERNYDYEDYYYAMDYWGQGTLVTVSSASTKGPSVFPLAPSSKSTSGGTAALGCLVEDYFPEPVTVSWNSGALTSGVHTFPAVLQSSGLYSLSSVVTVPSSSLGTQTYICNVNHKPSNTKVDEKVEPKSCDKTHTCPPCPAPEAAGGPSVFLFPPKPKDTLMISRTPEVTCVVVDVSHEDPEVKFNWYVDGVEVHNAKTKPREEQYNSTYRVVSVLTVLHQDWLNGKEYKCKVSNKALGAPIEKTISKAKGQPREPQVCTLPPSRDELTKNQVSLSCAVKGFYPSDIAVEWESNGQPENNYKTTPPVLDSDGSFFLVSKLTVDKSRWQQGNVFSCSVMHEALHNHYTQKSLSLSP heavy 2: not shown light 1: DIQMTQSPSSLSASVGDRVTITCKSSQSLLYRSNQKNYLAWYQQKPGKAPKLLIYWASTRESGVPSRFSGSGSGTDFTLTISSLQPEDFATYYCQQYYNYPRTFGQGTKVEIKRTVAAPSVFIFPPSDRKLKSGTASVVCLLNNFYPREAKVQWKVDNALQSGNSQESVTEQDSKDSTYSLSSTLTLSKADYEKHKVYACEVTHQGLSSPVTKSFNRGEC light 2: EVQLLESGGGLVQPGGSLRLSCAASGFTFSTYAMNWVRQAPGKGLEWVSRIRSKYNNYATYYADSVKGRFTISRDDSKNTLYLQMNSLRAEDTAVYYCVRHGNFGNSYVSWFAYWGQGTLVTVSSASVAAPSVFIFPPSDEQLKSGTASVVCLLNNFYPREAKVQWKVDNALQSGNSQESVTEQDSKDSTYSLSSTLTLSKADYEKHKVYACEVTHQGLSSPVTKSFNRGEC | 79 | 0.69 | – |
| vandortuzumab (antibody, V domains shown) VH: EVQLVESGGGLVQPGGSLRLSCAVSGYSITSDYAWNWVRQAPGKGLEWVGYISNSGSTSYNPSLKSRFTISRDTSKNTLYLQMNSLRAEDTAVYYCARERNYDYDDYYYAMDYWGQGTLVTVSS VL: DIQMTQSPSSLSASVGDRVTITCKSSQSLLYRSNQKNYLAWYQQKPGKAPKLLIYWASTRESGVPSRFSGSGSGTDFTLTISSLQPEDFATYYCQQYYNYPRTFGQGTKVEIK | – | – | binds |
